Experimental data: the supplement of paper PMC9170038

Tested on: MS2 coat protein
Experiment: apparent KD of MS2 coat protein; designed switch direction (-1 OFF switch, 1 ON switch): -1; higher = weaker reporter binding
Outline: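 Designed RNA switches with common flanks were transcribed on Illumina chips by stalled E. coli RNA polymerase and titrated with SNAP-549-labelled MS2 coat protein, from 0.7 or 1.5 nM doubling to 3 µM, in Tris-HCl pH 7.5 buffer with KCl, MgCl2, BSA, DTT, tRNA and Tween-20. Steps lasted 0.8–1.5 h (lowest) to 10–20 min (highest). Titrations ran without input, with 200 uM small-molecule ligand, or with an oligonucleotide input. Normalised cluster fluorescence was curve-fitted, and apparent KD is the per-design median over clusters.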

[1] = Eterna round: R95, input ligand: FMN 200 uM
[2] = Eterna round: R95, input ligand: microRNA oligo, concentration not stated
[3] = Eterna round: R95, input ligand: none
[4] = input ligand: microRNA oligo, concentration not stated

Sequence | apparent KD of MS2 coat protein [1] | apparent KD of MS2 coat protein [2] | apparent KD of MS2 coat protein [3] | apparent KD of MS2 coat protein (input ligand: FMN 200 uM) | apparent KD of MS2 coat protein (input ligand: none) | apparent KD of MS2 coat protein [4]
UUGGAGAUAGGAUAUACGAGGAGAGUAGAGGGAAGGUGAGGACAUGAGGAUCACCCAUGUAGAAGGAUCAGGAG [JR_Exclu2_Sub067] (puzzle: Exclusion 2) | 34.8 nM | 34.8 nM | 47.6 nM |  |  | 
AAGAAACAUGAGGAUCACCCAUGUGAGGAUAUGUAAAAGAAAAGAAAAUAAAGAAGAAACAGAAGGCACAAAGG [Mat - Mod of Hog D21] (puzzle: Exclusion 1) | 51.8 nM | 39.1 nM | 31.8 nM |  |  | 
AGUACAUUCACGAAAGUGAAUGUACAAUAAGCUUGUGGAACAUGAGGAUCACCCAUGUCCUCAUAAGCUCGUCUUAU [Mat - Sensor v3 - Turn-off var 2 - D31] (puzzle: Sensor v3, turn-off variant 2) | 16.1 nM | 68.7 nM | 14.6 nM |  |  | 
UACUUGUUAGGAUAUCUUACAUUUGCAUCAUAGUAACCUUUGGAGAAGGGACAUGAGGAUCACCCAUGUUUGGU [tap-tap-tappy6] (Eterna round: R97, puzzle: Exclusion 4) |  |  |  | 49.2 nM | 72.6 nM | 
GAAGUUAGAGGAUAUACAUGAGGAUCACCCAUGUAUGAAGUUAACUUUGUAUAUAAAUGUAGAAGGCUAACUUC [-21.1, -19.6 kcal, 36% A] (Eterna round: R97, puzzle: Exclusion 3) |  |  |  | 41.6 nM | 25.6 nM | 
AUUUAUAAUGUAGGAUAUGGAUUCGAAACGUAUCCAGAAGGACAUGAGGAUCACCCAUGUACAUGAGGAUCACCCAAUUUAUUA [Fiskers ExNg1 - 10] (Eterna round: R96, puzzle: Exclusion NG 1) |  |  |  | 98 nM | 59.3 nM | 46.7 nM
ACAUGAGGAUCACCCAUGUGACAAGAAUGGCUGACACAGAGAUAGGAUAUAGGUGCAUAUCUAACCUAGAAGGGUCAUGACUGG [Deportation 76 - Jieux - Exclusion NG 3] (Eterna round: R96, puzzle: Exclusion NG 3) |  |  |  | 40.2 nM | 26.5 nM | 23.3 nM
CCAGGCUGUGUGAGGAUAUGCUGGUCCUUGGAUCAGCAGAAGGCACAUGAGGAUCACCCAUGUGAAAAGCUUGG [Mat - Exclusion 4 - JL Mod - D91] (puzzle: Brourd's mod of Exclusion 4) |  | 16.2 nM |  |  |  | 
GGACAUAAAGUCAGGAUAUUAAGGCGAACAAGCGAUGAGAAGGGACAUGAGGAUCACCCAUGUGAUUCUCAUCA [Isedzaor] (Eterna round: R97, puzzle: Brourd's mod of Exclusion 4) |  |  |  | 20.5 nM | 14 nM | 
CAGUACUGAGGAUAUACAUGAGGAUCACCCAUGUGAGAGAUACUAGUGAGGUCGAUUAGUAGAAGGCAGUACUG [Mat X3R4 m3] (Eterna round: R97, puzzle: Exclusion 3) |  |  |  | 856 nM | 35.7 nM | 
CUUUUGUGAGGAUAUCAGUAGUAAAAAAAUAAAAUUACUUCUGAGAAGGCACAUGAGGAUCACCCAUGUUCCUC [salish99_ex4_r3_027] (puzzle: Exclusion 4) |  | 37.4 nM |  |  |  | 
AAUAACAGAGGAUAUACUGUUUUAUGUAUUUAUUAUUUUGAACAUGAGGAUCACCCAUGUAGAAGGCUGAUUAA [JMF 48] (puzzle: Exclusion 2) |  | 29.6 nM |  |  |  | 
CUACUGUGAGGAUAUGGUGAGUAGUGCCUGAGCGCUGCUCACCAGAAGGCACAUGAGGAUCACCCAUGUAUGAC [JL-ex4-2.03 denovo] (puzzle: Exclusion 4) |  | 43.5 nM |  |  |  | 
UCGUUCCGUGUAGGAUAUUGGUCUCCCUCGGGCCGAGAAGGACAUGAGGAUCACCCAUGUAUGUUAUUAUCGCGCGUGGCGCAU [Design 90] (Eterna round: R96, puzzle: Exclusion NG 1) |  |  |  | 29.5 nM | 24.1 nM | 17.8 nM
UUAUUCAGAGGAUAUGCGCAUAGAUAAGACUUUUUUUUUUAACAUGAGGAUCACCCAUGUAGAAGGCUGUAAUU [Ex2 #55] (Eterna round: R97, puzzle: Exclusion 2) |  |  |  | 18.1 nM | 21 nM | 
CAGUACUGAGGAUAUACAUGAGGAUCACCCAUGUGUUUUCUACUAGGAAACUAGGUAUGUAGAAGGCAGUACUG [Omei Ex3 Mod of Eli 4.27 v3] (Eterna round: R97, puzzle: Exclusion 3) |  |  |  | 194 nM | 22.9 nM | 
UGAUCUAGCGGAGGAUAUACAUGAGGAUCACCCAUGUAGAUAACAUGACCGUAGUCGUGUAUUGUGUAGAAGGCCGCUAGAUCU [JL ENG2 3.66] (Eterna round: R96, puzzle: Exclusion NG 2) |  |  |  | 40.8 nM | 18.8 nM | 14.3 nM
GAUCACUGAGGAUAUACACAGAUACAAAGUAUCUGACCGUGACAUGAGGAUCACCCAUGUAGAAGGCAGAGGUC [Omei Ex2 B1] (Eterna round: R97, puzzle: Exclusion 2) |  |  |  | 384 nM | 47.2 nM | 
